In this test the target is T1, Human recombinant UNC5B (BLI antigen) (Human, UniProt Q8IZJ1 27-377).
T1 construct: also called UNC5B ectodomain
Description: BLI, antigen captured by His tag, antibody as analyte. An excerpt: Antigen was loaded as ligand and dipped into antibody as analyte during association, and assay buffer during dissociation.
Purified recombinant antigens were purchased from a commercial supplier or prepared and purified in-house and details are shown in Table 2.

B1: ATL_0006178 (antibody, IgG1, V domains shown)
VH: QVQLQESGPGLVKPSETLSLTCTVSGGSISSYFWSWIRQPPGKGLEWIGYIHYSGTTNQNPSLKSRVTISVDKSKNQFSLKLSSVTAADTAVYYCARGRGMATLPFDYWGQGTLVTVSS
VL: not shown
notes: Combination variant of ATL_5262 (T82K, Q67 kept, N58Y); also called ATL_6178; ATL6178
Consider B1, for which the binding result is reported as “no binding (tested: up to 100 nM)”.

For the origin of these results see patent US20240228604A1 (ALCHEMAB THERAPEUTICS, published 2024).
